EP4745153A1, “GLP-1, GIP AND GCG RECEPTOR […] USE THEREOF” (Jiangsu Hengrui Pharmaceuticals Co., Ltd., priority 2023, dated 2025)
Read-outs that look alike come from different tables or passages of the source. Starred links: 1 amine or outer side, 2 acyl side, 3 side chain; linkers in the order of their positions; H or OH if unused. Non-standard residues stand in square brackets, D forms with d. Groups on a side chain read outwards from the residue. No end group written: not given here. *: point of attachment. C20 diacid = O=C(O)CCCCCCCCCCCCCCCCCCC(=O)*; C17 diacid = O=C(O)CCCCCCCCCCCCCCCC(=O)*; γGlu = O=C(O)[C@H](CCC(=O)[*:2])N[*:1]; αMeK = C[C@](N)(CCCCN)C(=O)O; Ac4c = NC1(C(=O)O)CCC1; AEEA = NCCOCCOCC(=O)O; Ac3c = NC1(C(=O)O)CC1; Aib = CC(C)(N)C(=O)O

Columns and labels:
Experiment in all cases: cell-based or functional assay
[1] = molecular target: T1, human glucose-dependent insulinotropic polypeptide receptor (human, UniProt P48546 22-466)
T1 sequence (looked up): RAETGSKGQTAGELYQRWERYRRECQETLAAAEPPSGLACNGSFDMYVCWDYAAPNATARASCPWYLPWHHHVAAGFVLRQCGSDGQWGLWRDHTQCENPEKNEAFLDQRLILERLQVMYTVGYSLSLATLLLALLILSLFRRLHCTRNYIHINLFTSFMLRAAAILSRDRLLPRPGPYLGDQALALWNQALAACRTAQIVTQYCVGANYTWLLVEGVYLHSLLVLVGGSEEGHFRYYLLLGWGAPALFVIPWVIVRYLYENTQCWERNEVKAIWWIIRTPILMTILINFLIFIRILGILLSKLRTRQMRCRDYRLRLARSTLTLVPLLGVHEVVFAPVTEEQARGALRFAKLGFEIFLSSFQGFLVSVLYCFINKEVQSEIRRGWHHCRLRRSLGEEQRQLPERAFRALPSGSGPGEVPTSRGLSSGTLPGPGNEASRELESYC

human glucagon receptor = human glucagon receptor (human, UniProt P47871 26-477)
human glucagon receptor, sequence (P47871 26-477): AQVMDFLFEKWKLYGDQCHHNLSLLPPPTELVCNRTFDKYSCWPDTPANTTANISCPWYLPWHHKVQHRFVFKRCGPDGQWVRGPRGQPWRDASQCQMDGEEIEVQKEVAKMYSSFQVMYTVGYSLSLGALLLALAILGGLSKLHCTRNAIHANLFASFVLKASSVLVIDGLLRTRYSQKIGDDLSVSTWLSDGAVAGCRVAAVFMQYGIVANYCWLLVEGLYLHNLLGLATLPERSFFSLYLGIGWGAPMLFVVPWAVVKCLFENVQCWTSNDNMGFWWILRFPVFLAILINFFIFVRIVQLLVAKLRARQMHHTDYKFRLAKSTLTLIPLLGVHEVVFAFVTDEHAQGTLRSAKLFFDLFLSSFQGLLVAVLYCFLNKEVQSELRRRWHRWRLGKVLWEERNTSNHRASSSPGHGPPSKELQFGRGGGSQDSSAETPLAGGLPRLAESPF

[2] = molecular target: human glucagon-like peptide-1 receptor (human, UniProt P43220 24-463)
[3] = molecular target: T1, human glucose-dependent insulinotropic …; remark: listed apart in the source

B1: Compound No. 0148 (peptide)
peptide: H[Aib]HGTFTSDLSILLEK([AEEA-AEEA-γGlu-C20 diacid])QAA[Ac3c]EFVEWLLA[dE]GPSSGAPPPS-NH2
modifications: N-terminus assumed
SMILES: CC[C@H](C)[C@H](NC(=O)[C@H](CO)NC(=O)[C@H](CC(C)C)NC(=O)[C@H](CC(=O)O)NC(=O)[C@H](CO)NC(=O)[C@@H](NC(=O)[C@H](Cc1ccccc1)NC(=O)[C@@H](NC(=O)CNC(=O)[C@H](Cc1c[nH]cn1)NC(=O)C(C)(C)NC(=O)[C@@H](N)Cc1c[nH]cn1)[C@@H](C)O)[C@@H](C)O)C(=O)N[C@@H](CC(C)C)C(=O)N[C@@H](CC(C)C)C(=O)N[C@@H](CCC(=O)O)C(=O)N[C@@H](CCCCNC(=O)COCCOCCNC(=O)COCCOCCNC(=O)CC[C@H](NC(=O)CCCCCCCCCCCCCCCCCCC(=O)O)C(=O)O)C(=O)N[C@@H](CCC(N)=O)C(=O)N[C@@H](C)C(=O)N[C@@H](C)C(=O)NC1(C(=O)N[C@@H](CCC(=O)O)C(=O)N[C@@H](Cc2ccccc2)C(=O)N[C@H](C(=O)N[C@@H](CCC(=O)O)C(=O)N[C@@H](Cc2c[nH]c3ccccc23)C(=O)N[C@@H](CC(C)C)C(=O)N[C@@H](CC(C)C)C(=O)N[C@@H](C)C(=O)N[C@H](CCC(=O)O)C(=O)NCC(=O)N2CCC[C@H]2C(=O)N[C@@H](CO)C(=O)N[C@@H](CO)C(=O)NCC(=O)N[C@@H](C)C(=O)N2CCC[C@H]2C(=O)N2CCC[C@H]2C(=O)N2CCC[C@H]2C(=O)N[C@@H](CO)C(N)=O)C(C)C)CC1
Activity against human GIPR (EC50 nM) [1]: 0.006 nM | Activity against human GCGR (EC50 nM) (human glucagon receptor): 0.549 nM | Activity against human GLP-1R (EC50 nM) [2]: 0.06 nM

B2: Compound No. 0146 (peptide)
peptide: H[Aib]HGTFTSDLSILLEK([AEEA-AEEA-γGlu-C20 diacid])KAA[Ac3c]EFVEWLLA[dE]GPSSGAPPPS-NH2
modifications: N-terminus assumed
SMILES: CC[C@H](C)[C@H](NC(=O)[C@H](CO)NC(=O)[C@H](CC(C)C)NC(=O)[C@H](CC(=O)O)NC(=O)[C@H](CO)NC(=O)[C@@H](NC(=O)[C@H](Cc1ccccc1)NC(=O)[C@@H](NC(=O)CNC(=O)[C@H](Cc1c[nH]cn1)NC(=O)C(C)(C)NC(=O)[C@@H](N)Cc1c[nH]cn1)[C@@H](C)O)[C@@H](C)O)C(=O)N[C@@H](CC(C)C)C(=O)N[C@@H](CC(C)C)C(=O)N[C@@H](CCC(=O)O)C(=O)N[C@@H](CCCCNC(=O)COCCOCCNC(=O)COCCOCCNC(=O)CC[C@H](NC(=O)CCCCCCCCCCCCCCCCCCC(=O)O)C(=O)O)C(=O)N[C@@H](CCCCN)C(=O)N[C@@H](C)C(=O)N[C@@H](C)C(=O)NC1(C(=O)N[C@@H](CCC(=O)O)C(=O)N[C@@H](Cc2ccccc2)C(=O)N[C@H](C(=O)N[C@@H](CCC(=O)O)C(=O)N[C@@H](Cc2c[nH]c3ccccc23)C(=O)N[C@@H](CC(C)C)C(=O)N[C@@H](CC(C)C)C(=O)N[C@@H](C)C(=O)N[C@H](CCC(=O)O)C(=O)NCC(=O)N2CCC[C@H]2C(=O)N[C@@H](CO)C(=O)N[C@@H](CO)C(=O)NCC(=O)N[C@@H](C)C(=O)N2CCC[C@H]2C(=O)N2CCC[C@H]2C(=O)N2CCC[C@H]2C(=O)N[C@@H](CO)C(N)=O)C(C)C)CC1
Activity against human GIPR (EC50 nM) [1]: 0.009 nM | Activity against human GCGR (EC50 nM) (human glucagon receptor): 0.146 nM | Activity against human GLP-1R (EC50 nM) [2]: 0.033 nM

B3: Compound No. 0118 (peptide)
peptide: H[Aib]HGTFTSDYS[αMeK]LLEK([AEEA-AEEA-γGlu-C17 diacid])IAAQEFVEWLLAGGPSSGAPPPS-NH2
modifications: N-terminus assumed
SMILES: CC[C@H](C)[C@H](NC(=O)[C@H](CCCCNC(=O)COCCOCCNC(=O)COCCOCCNC(=O)CC[C@H](NC(=O)CCCCCCCCCCCCCCCC(=O)O)C(=O)O)NC(=O)[C@H](CCC(=O)O)NC(=O)[C@H](CC(C)C)NC(=O)[C@H](CC(C)C)NC(=O)[C@](C)(CCCCN)NC(=O)[C@H](CO)NC(=O)[C@H](Cc1ccc(O)cc1)NC(=O)[C@H](CC(=O)O)NC(=O)[C@H](CO)NC(=O)[C@@H](NC(=O)[C@H](Cc1ccccc1)NC(=O)[C@@H](NC(=O)CNC(=O)[C@H](Cc1c[nH]cn1)NC(=O)C(C)(C)NC(=O)[C@@H](N)Cc1c[nH]cn1)[C@@H](C)O)[C@@H](C)O)C(=O)N[C@@H](C)C(=O)N[C@@H](C)C(=O)N[C@@H](CCC(N)=O)C(=O)N[C@@H](CCC(=O)O)C(=O)N[C@@H](Cc1ccccc1)C(=O)N[C@H](C(=O)N[C@@H](CCC(=O)O)C(=O)N[C@@H](Cc1c[nH]c2ccccc12)C(=O)N[C@@H](CC(C)C)C(=O)N[C@@H](CC(C)C)C(=O)N[C@@H](C)C(=O)NCC(=O)NCC(=O)N1CCC[C@H]1C(=O)N[C@@H](CO)C(=O)N[C@@H](CO)C(=O)NCC(=O)N[C@@H](C)C(=O)N1CCC[C@H]1C(=O)N1CCC[C@H]1C(=O)N1CCC[C@H]1C(=O)N[C@@H](CO)C(N)=O)C(C)C
Activity against human GIPR (EC50 nM) [3]: 0.004 nM

B4: Compound No. 0145 (peptide)
peptide: H[Aib]HGTFTSDLSILLEK([AEEA-AEEA-γGlu-C20 diacid])QAA[Ac4c]EFVEWLLA[dE]GPSSGAPPPS-NH2
modifications: N-terminus assumed
SMILES: CC[C@H](C)[C@H](NC(=O)[C@H](CO)NC(=O)[C@H](CC(C)C)NC(=O)[C@H](CC(=O)O)NC(=O)[C@H](CO)NC(=O)[C@@H](NC(=O)[C@H](Cc1ccccc1)NC(=O)[C@@H](NC(=O)CNC(=O)[C@H](Cc1c[nH]cn1)NC(=O)C(C)(C)NC(=O)[C@@H](N)Cc1c[nH]cn1)[C@@H](C)O)[C@@H](C)O)C(=O)N[C@@H](CC(C)C)C(=O)N[C@@H](CC(C)C)C(=O)N[C@@H](CCC(=O)O)C(=O)N[C@@H](CCCCNC(=O)COCCOCCNC(=O)COCCOCCNC(=O)CC[C@H](NC(=O)CCCCCCCCCCCCCCCCCCC(=O)O)C(=O)O)C(=O)N[C@@H](CCC(N)=O)C(=O)N[C@@H](C)C(=O)N[C@@H](C)C(=O)NC1(C(=O)N[C@@H](CCC(=O)O)C(=O)N[C@@H](Cc2ccccc2)C(=O)N[C@H](C(=O)N[C@@H](CCC(=O)O)C(=O)N[C@@H](Cc2c[nH]c3ccccc23)C(=O)N[C@@H](CC(C)C)C(=O)N[C@@H](CC(C)C)C(=O)N[C@@H](C)C(=O)N[C@H](CCC(=O)O)C(=O)NCC(=O)N2CCC[C@H]2C(=O)N[C@@H](CO)C(=O)N[C@@H](CO)C(=O)NCC(=O)N[C@@H](C)C(=O)N2CCC[C@H]2C(=O)N2CCC[C@H]2C(=O)N2CCC[C@H]2C(=O)N[C@@H](CO)C(N)=O)C(C)C)CCC1
Activity against human GIPR (EC50 nM) [1]: 0.003 nM | Activity against human GCGR (EC50 nM) (human glucagon receptor): 0.143 nM | Activity against human GLP-1R (EC50 nM) [2]: 0.057 nM

B5: Compound No. 0149 (peptide)
peptide: H[Aib]HGTFTSDYSILLEK([AEEA-AEEA-γGlu-C20 diacid])QAA[Ac3c]EFVEWLLA[dE]GPSSGAPPPS-NH2
modifications: N-terminus assumed
SMILES: CC[C@H](C)[C@H](NC(=O)[C@H](CO)NC(=O)[C@H](Cc1ccc(O)cc1)NC(=O)[C@H](CC(=O)O)NC(=O)[C@H](CO)NC(=O)[C@@H](NC(=O)[C@H](Cc1ccccc1)NC(=O)[C@@H](NC(=O)CNC(=O)[C@H](Cc1c[nH]cn1)NC(=O)C(C)(C)NC(=O)[C@@H](N)Cc1c[nH]cn1)[C@@H](C)O)[C@@H](C)O)C(=O)N[C@@H](CC(C)C)C(=O)N[C@@H](CC(C)C)C(=O)N[C@@H](CCC(=O)O)C(=O)N[C@@H](CCCCNC(=O)COCCOCCNC(=O)COCCOCCNC(=O)CC[C@H](NC(=O)CCCCCCCCCCCCCCCCCCC(=O)O)C(=O)O)C(=O)N[C@@H](CCC(N)=O)C(=O)N[C@@H](C)C(=O)N[C@@H](C)C(=O)NC1(C(=O)N[C@@H](CCC(=O)O)C(=O)N[C@@H](Cc2ccccc2)C(=O)N[C@H](C(=O)N[C@@H](CCC(=O)O)C(=O)N[C@@H](Cc2c[nH]c3ccccc23)C(=O)N[C@@H](CC(C)C)C(=O)N[C@@H](CC(C)C)C(=O)N[C@@H](C)C(=O)N[C@H](CCC(=O)O)C(=O)NCC(=O)N2CCC[C@H]2C(=O)N[C@@H](CO)C(=O)N[C@@H](CO)C(=O)NCC(=O)N[C@@H](C)C(=O)N2CCC[C@H]2C(=O)N2CCC[C@H]2C(=O)N2CCC[C@H]2C(=O)N[C@@H](CO)C(N)=O)C(C)C)CC1
Activity against human GIPR (EC50 nM) [1]: 0.004 nM | Activity against human GCGR (EC50 nM) (human glucagon receptor): 0.301 nM | Activity against human GLP-1R (EC50 nM) [2]: 0.071 nM

B6: Compound No. 0147 (peptide)
peptide: H[Aib]HGTFTSDLSILLEK([AEEA-AEEA-γGlu-C20 diacid])KAA[Ac4c]EFVEWLLA[dE]GPSSGAPPPS-NH2
modifications: N-terminus assumed
SMILES: CC[C@H](C)[C@H](NC(=O)[C@H](CO)NC(=O)[C@H](CC(C)C)NC(=O)[C@H](CC(=O)O)NC(=O)[C@H](CO)NC(=O)[C@@H](NC(=O)[C@H](Cc1ccccc1)NC(=O)[C@@H](NC(=O)CNC(=O)[C@H](Cc1c[nH]cn1)NC(=O)C(C)(C)NC(=O)[C@@H](N)Cc1c[nH]cn1)[C@@H](C)O)[C@@H](C)O)C(=O)N[C@@H](CC(C)C)C(=O)N[C@@H](CC(C)C)C(=O)N[C@@H](CCC(=O)O)C(=O)N[C@@H](CCCCNC(=O)COCCOCCNC(=O)COCCOCCNC(=O)CC[C@H](NC(=O)CCCCCCCCCCCCCCCCCCC(=O)O)C(=O)O)C(=O)N[C@@H](CCCCN)C(=O)N[C@@H](C)C(=O)N[C@@H](C)C(=O)NC1(C(=O)N[C@@H](CCC(=O)O)C(=O)N[C@@H](Cc2ccccc2)C(=O)N[C@H](C(=O)N[C@@H](CCC(=O)O)C(=O)N[C@@H](Cc2c[nH]c3ccccc23)C(=O)N[C@@H](CC(C)C)C(=O)N[C@@H](CC(C)C)C(=O)N[C@@H](C)C(=O)N[C@H](CCC(=O)O)C(=O)NCC(=O)N2CCC[C@H]2C(=O)N[C@@H](CO)C(=O)N[C@@H](CO)C(=O)NCC(=O)N[C@@H](C)C(=O)N2CCC[C@H]2C(=O)N2CCC[C@H]2C(=O)N2CCC[C@H]2C(=O)N[C@@H](CO)C(N)=O)C(C)C)CCC1
Activity against human GIPR (EC50 nM) [1]: 0.005 nM | Activity against human GCGR (EC50 nM) (human glucagon receptor): 0.041 nM | Activity against human GLP-1R (EC50 nM) [2]: 0.035 nM
